Columns and labels:
[1] = substrate: CC/C=C\C/C=C\C/C=C\C/C=C\C/C=C\C/C=C\CCC(=O)O; test: Kinetics parameters of 15s-LOX (UV 270 nm, Michaelis-Menten); format: biochemical, Glycine max (soybean); details: other: 15s-LOX, substrate 0.02-0.2 mM, borate buffer pH 9, 20 °C
Experimental: (§1) The activity of 15-sLOX was monitored on a Beckman Coulter DU730 Life Sciences UV-visible spectrometer at a wavelength of 270 nm monitoring the conjugated triene structure in the dihydroxylation products. For the measurements a reaction mixture of DHA or deuterated DHA (0.02 mM; 0.04 mM; 0.1 mM and 0.2 mM) was prepared in 750 µL sodium borate buffer (50 mM, pH 9) by ultrasonification for 10 s. The reaction was subsequently initiated by the addition of 10 µL 15-sLOX (4 mg/mL) to make a total volume of 760 µL in a Hellma CEL2056 quartz cuvette with 1 cm path length (20 °C). The initial reaction rates (V(0)), derived from the recorded UV-absorbance using the law of Lambert-Beer (molar extinction coefficient = 40,000), were plotted against the respective DHA concentrations and fitted to Michaelis-Menten kinetics in GraphPad Prism 7.0. All V(0) values were determined in triplicate and the average of three independent experiments was plotted against the substrate concentrations to yield Michaelis-Menten kinetics.

[2] = substrate: CCC=CCC=CCC=CCC=CCC=CCC=CCCC(=O)O; test: as above; format: biochemical, Glycine max (soybean); details: other: 15s-LOX, substrate 0.02-0.2 mM, borate buffer pH 9, 20 °C
Experimental: as §1

B1: 15-sLOX (Glycine max) (protein)
chain: MFSAGHKIKGTVVLMPKNELEVNPDGSAVDNLNAFLGRSVSLQLISATKADAHGKGKVGKDTFLEGINTSLPTLGAGESAFNIHFEWDGSMGIPGAFYIKNYMQVEFFLKSLTLEAISNQGTIRFVCNSWVYNTKLYKSVRIFFANHTYVPSETPAPLVSYREEELKSLRGNGTGERKEYDRIYDYDVYNDLGNPDKSEKLARPVLGGSSTFPYPRRGRTGRGPTVTDPNTEKQGEVFYVPRDENLGHLKSKDALEIGTKSLSQIVQPAFESAFDLKSTPIEFHSFQDVHDLYEGGIKLPRDVISTIIPLPVIKELYRTDGQHILKFPQPHVVQVSQSAWMTDEEFAREMIAGVNPCVIRGLEEFPPKSNLDPAIYGDQSSKITADSLDLDGYTMDEALGSRRLFMLDYHDIFMPYVRQINQLNSAKTYATRTILFLREDGTLKPVAIELSLPHSAGDLSAAVSQVVLPAKEGVESTIWLLAKAYVIVNDSCYHQLMSHWLNTHAAMEPFVIATHRHLSVLHPIYKLLTPHYRNNMNINALARQSLINANGIIETTFLPSKYSVEMSSAVYKNWVFTDQALPADLIKRGVAIKDPSTPHGVRLLIEDYPYAADGLEIWAAIKTWVQEYVPLYYARDDDVKNDSELQHWWKEAVEKGHGDLKDKPWWPKLQTLEDLVEVCLIIIWIASALHAAVNFGQYPYGGLIMNRPTASRRLLPEKGTPEYEEMINNHEKAYLRTITSKLPTLISLSVIEILSTHASDEVYLGQRDNPHWTSDSKALQAFQKFGNKLKEIEEKLVRRNNDPSLQGNRLGPVQLPYTLLYPSSEEGLTFRGIPNSISI
For B1, the Km ([1]; substrate D2-DHA) was 36.3 µM, the Km ([1]; substrate Natural DHA) was 68 µM and the Km [2] was 57.4 µM.

Reference: PMC6826779, “Bis-allylic Deuterated DHA Alleviates Oxidative Stress in Retinal Epithelial Cells” (Antioxidants, 2019)
